Measured values taken from patent US7029865.

T1: rhMC-4R (rhesus monkey)
T1 chain: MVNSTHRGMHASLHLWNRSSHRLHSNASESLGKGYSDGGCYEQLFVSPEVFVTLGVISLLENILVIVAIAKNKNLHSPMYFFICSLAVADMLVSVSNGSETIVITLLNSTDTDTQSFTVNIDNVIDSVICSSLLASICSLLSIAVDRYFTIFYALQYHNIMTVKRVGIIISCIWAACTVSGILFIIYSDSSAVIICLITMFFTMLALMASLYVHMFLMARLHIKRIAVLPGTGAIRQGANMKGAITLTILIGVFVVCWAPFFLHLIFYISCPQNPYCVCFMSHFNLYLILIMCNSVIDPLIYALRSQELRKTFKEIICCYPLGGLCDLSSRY


How the values were obtained:
Experiment in all cases: competition
Conditions in all cases: modification not given
[1] = biological target: T1, rhMC-4R (rhesus monkey)
[2] = biological target: hMC-3R (human), P41968
hMC-3R (human), P41968, sequence (P41968 whole entry): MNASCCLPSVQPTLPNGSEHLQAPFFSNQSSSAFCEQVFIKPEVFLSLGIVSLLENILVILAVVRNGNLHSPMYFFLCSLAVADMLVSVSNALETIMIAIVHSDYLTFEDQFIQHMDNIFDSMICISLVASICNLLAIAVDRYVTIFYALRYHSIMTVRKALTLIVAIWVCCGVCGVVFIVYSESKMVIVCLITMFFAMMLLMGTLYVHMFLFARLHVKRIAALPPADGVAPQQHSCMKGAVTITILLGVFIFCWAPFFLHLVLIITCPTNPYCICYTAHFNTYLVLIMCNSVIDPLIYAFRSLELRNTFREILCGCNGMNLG

[3] = biological target: hMC-5R (human), P33032
hMC-5R (human), P33032, sequence (P33032 whole entry): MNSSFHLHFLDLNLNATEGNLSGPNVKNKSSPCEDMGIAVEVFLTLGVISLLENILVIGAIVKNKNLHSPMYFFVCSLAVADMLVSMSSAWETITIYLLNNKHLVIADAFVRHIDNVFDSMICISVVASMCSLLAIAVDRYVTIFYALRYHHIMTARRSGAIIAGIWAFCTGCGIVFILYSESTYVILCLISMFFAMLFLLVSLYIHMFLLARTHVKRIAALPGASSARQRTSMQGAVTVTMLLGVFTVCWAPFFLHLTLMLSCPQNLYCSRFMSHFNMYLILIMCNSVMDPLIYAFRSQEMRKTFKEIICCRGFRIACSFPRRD

[4] = biological target: hMC-4R (human), P32245

| Binder | IC50 [1] [nM] | IC50 [2] [nM] | IC50 [3] [nM] | IC50 [4] [nM] |
| --- | --- | --- | --- | --- |
| SYSMEHFRWGKPV [alpha-MSH, P01189] | 27 |  |  |  |
| SYSMEHFRWGKPVGKKRRPVKVYPNGAEDESAEAFPLEF [ACTH1-39, P01189] | 1.3 | 6 | 0.4 | 6 |
